Source: patent publication US9958461B2, “Detection of protein to protein interactions” (THE GOVERNING COUNCIL OF THE UNIVERSITY OF TORONTO, priority 2013, dated 2018)

B1: CDH5 (protein, UniProt P33151 48-784, looked up)
Cadherin-5: DWIWNQMHIDEEKNTSLPHHVGKIKSSVSRKNAKYLLKGEYVGKVFRVDAETGDVFAIERLDRENISEYHLTAVIVDKDTGENLETPSSFTIKVHDVNDNWPVFTHRLFNASVPESSAVGTSVISVTAVDADDPTVGDHASVMYQILKGKEYFAIDNSGRIITITKSLDREKQARYEIVVEARDAQGLRGDSGTATVLVTLQDINDNFPFFTQTKYTFVVPEDTRVGTSVGSLFVEDPDEPQNRMTKYSILRGDYQDAFTIETNPAHNEGIIKPMKPLDYEYIQQYSFIVEATDPTIDLRYMSPPAGNRAQVIINITDVDEPPIFQQPFYHFQLKENQKKPLIGTVLAMDPDAARHSIGYSIRRTSDKGQFFRVTKKGDIYNEKELDREVYPWYNLTVEAKELDSTGTPTGKESIVQVHIEVLDENDNAPEFAKPYQPKVCENAVHGQLVLQISAIDKDITPRNVKFKFILNTENNFTLTDNHDNTANITVKYGQFDREHTKVHFLPVVISDNGMPSRTGTSTLTVAVCKCNEQGEFTFCEDMAAQVGVSIQAVVAILLCILTITVITLLIFLRRRLRKQARAHGKSVPEIHEQLVTYDEEGGGEMDTTSYDVSVLNSVRRGGAKPPRPALDARPSLYAQVQKPPRHAPGAHGGPGEMAAMIEVKKDEADHDGDGPPYDTLHIYGYEGSESIAESLSSLGTDSSDSDVDYDFLNDWGPRFKMLAELYGSDPREELLY
B2: CTNND1 (protein, UniProt O60716 1-968, looked up)
Catenin delta-1: MDDSEVESTASILASVKEQEAQFEKLTRALEEERRHVSAQLERVRVSPQDANPLMANGTLTRRHQNGRFVGDADLERQKFSDLKLNGPQDHSHLLYSTIPRMQEPGQIVETYTEEDPEGAMSVVSVETSDDGTTRRTETTVKKVVKTVTTRTVQPVAMGPDGLPVDASSVSNNYIQTLGRDFRKNGNGGPGPYVGQAGTATLPRNFHYPPDGYSRHYEDGYPGGSDNYGSLSRVTRIEERYRPSMEGYRAPSRQDVYGPQPQVRVGGSSVDLHRFHPEPYGLEDDQRSMGYDDLDYGMMSDYGTARRTGTPSDPRRRLRSYEDMIGEEVPSDQYYWAPLAQHERGSLASLDSLRKGGPPPPNWRQPELPEVIAMLGFRLDAVKSNAAAYLQHLCYRNDKVKTDVRKLKGIPVLVGLLDHPKKEVHLGACGALKNISFGRDQDNKIAIKNCDGVPALVRLLRKARDMDLTEVITGTLWNLSSHDSIKMEIVDHALHALTDEVIIPHSGWEREPNEDCKPRHIEWESVLTNTAGCLRNVSSERSEARRKLRECDGLVDALIFIVQAEIGQKDSDSKLVENCVCLLRNLSYQVHREIPQAERYQEAAPNVANNTGPHAASCFGAKKGKDEWFSRGKKPIEDPANDTVDFPKRTSPARGYELLFQPEVVRIYISLLKESKTPAILEASAGAIQNLCAGRWTYGRYIRSALRQEKALSAIADLLTNEHERVVKAASGALRNLAVDARNKELIGKHAIPNLVKNLPGGQQNSSWNFSEDTVISILNTINEVIAENLEAAKKLRETQGIEKLVLINKSGNRSEKEVRAAALVLQTIWGYKELRKPLEKEGWKKSDFQVNLNNASRSQSSHSYDDSTLPLIDRNQKSDKKPDREEIQMSNMGSNTKSLDNNYSTPNERGDHNRTLDRSGDLGDMEPLKGTTPLMQDEGQESLEEELDVLVLDDEGGQVSYPSMQKI
B3: SNX9 (protein, UniProt Q9Y5X1 1-595, looked up)
Sorting nexin-9: MATKARVMYDFAAEPGNNELTVNEGEIITITNPDVGGGWLEGRNIKGERGLVPTDYVEILPSDGKDQFSCGNSVADQAFLDSLSASTAQASSSAASNNHQVGSGNDPWSAWSASKSGNWESSEGWGAQPEGAGAQRNTNTPNNWDTAFGHPQAYQGPATGDDDDWDEDWDGPKSSSYFKDSESADAGGAQRGNSRASSSSMKIPLNKFPGFAKPGTEQYLLAKQLAKPKEKIPIIVGDYGPMWVYPTSTFDCVVADPRKGSKMYGLKSYIEYQLTPTNTNRSVNHRYKHFDWLYERLLVKFGSAIPIPSLPDKQVTGRFEEEFIKMRMERLQAWMTRMCRHPVISESEVFQQFLNFRDEKEWKTGKRKAERDELAGVMIFSTMEPEAPDLDLVEIEQKCEAVGKFTKAMDDGVKELLTVGQEHWKRCTGPLPKEYQKIGKALQSLATVFSSSGYQGETDLNDAITEAGKTYEEIASLVAEQPKKDLHFLMECNHEYKGFLGCFPDIIGTHKGAIEKVKESDKLVATSKITLQDKQNMVKRVSIMSYALQAEMNHFHSNRIYDYNSVIRLYLEQQVQFYETIAEKLRQALSRFPVM
B4: PRKCE (protein, UniProt Q02156 1-737, looked up)
Protein kinase C epsilon type: MVVFNGLLKIKICEAVSLKPTAWSLRHAVGPRPQTFLLDPYIALNVDDSRIGQTATKQKTNSPAWHDEFVTDVCNGRKIELAVFHDAPIGYDDFVANCTIQFEELLQNGSRHFEDWIDLEPEGRVYVIIDLSGSSGEAPKDNEERVFRERMRPRKRQGAVRRRVHQVNGHKFMATYLRQPTYCSHCRDFIWGVIGKQGYQCQVCTCVVHKRCHELIITKCAGLKKQETPDQVGSQRFSVNMPHKFGIHNYKVPTFCDHCGSLLWGLLRQGLQCKVCKMNVHRRCETNVAPNCGVDARGIAKVLADLGVTPDKITNSGQRRKKLIAGAESPQPASGSSPSEEDRSKSAPTSPCDQEIKELENNIRKALSFDNRGEEHRAASSPDGQLMSPGENGEVRQGQAKRLGLDEFNFIKVLGKGSFGKVMLAELKGKDEVYAVKVLKKDVILQDDDVDCTMTEKRILALARKHPYLTQLYCCFQTKDRLFFVMEYVNGGDLMFQIQRSRKFDEPRSRFYAAEVTSALMFLHQHGVIYRDLKLDNILLDAEGHCKLADFGMCKEGILNGVTTTTFCGTPDYIAPEILQELEYGPSVDWWALGVLMYEMMAGQPPFEADNEDDLFESILHDDVLYPVWLSKEAVSILKAFMTKNPHKRLGCVASQNGEDAIKQHPFFKEIDWVLLEQKKIKPPFKPRIKTKRDVNNFDQDFTREEPVLTLVDEAIVKQINQEEFKGFSYFGEDLMP
B5: GRB10 (protein, UniProt Q13322 1-594, looked up)
Growth factor receptor-bound …: MALAGCPDSFLHHPYYQDKVEQTPRSQQDPAGPGLPAQSDRLANHQEDDVDLEALVNDMNASLESLYSACSMQSDTVPLLQNGQHARSQPRASGPPRSIQPQVSPRQRVQRSQPVHILAVRRLQEEDQQFRTSSLPAIPNPFPELCGPGSPPVLTPGSLPPSQAAAKQDVKVFSEDGTSKVVEILADMTARDLCQLLVYKSHCVDDNSWTLVEHHPHLGLERCLEDHELVVQVESTMASESKFLFRKNYAKYEFFKNPMNFFPEQMVTWCQQSNGSQTQLLQNFLNSSSCPEIQGFLHVKELGKKSWKKLYVCLRRSGLYCSTKGTSKEPRHLQLLADLEDSNIFSLIAGRKQYNAPTDHGLCIKPNKVRNETKELRLLCAEDEQTRTCWMTAFRLLKYGMLLYQNYRIPQQRKALLSPFSTPVRSVSENSLVAMDFSGQTGRVIENPAEAQSAALEEGHAWRKRSTRMNILGSQSPLHPSTLSTVIHRTQHWFHGRISREESHRIIKQQGLVDGLFLLRDSQSNPKAFVLTLCHHQKIKNFQILPCEDDGQTFFSLDDGNTKFSDLIQLVDFYQLNKGVLPCKLKHHCIRVAL
B6: PTPN2 (protein, UniProt P17706 1-415, looked up)
Tyrosine-protein phosphatase …: MPTTIEREFEELDTQRRWQPLYLEIRNESHDYPHRVAKFPENRNRNRYRDVSPYDHSRVKLQNAENDYINASLVDIEEAQRSYILTQGPLPNTCCHFWLMVWQQKTKAVVMLNRIVEKESVKCAQYWPTDDQEMLFKETGFSVKLLSEDVKSYYTVHLLQLENINSGETRTISHFHYTTWPDFGVPESPASFLNFLFKVRESGSLNPDHGPAVIHCSAGIGRSGTFSLVDTCLVLMEKGDDINIKQVLLNMRKYRMGLIQTPDQLRFSYMAIIEGAKCIKGDSSIQKRWKELSKEDLSPAFDHSPNKIMTEKYNGNRIGLEEEKLTGDRCTGLSSKMQDTMEENSESALRKRIREDRKATTAQKVQQMKQRLNENERKRKRWLYWQPILTKMGFMSVILVGAFVGWTLFFQQNAL
B7: CAV1 (protein, UniProt Q03135 2-178, looked up)
Caveolin-1: SGGKYVDSEGHLYTVPIREQGNIYKPNNKAMADELSEKQVYDAHTKEIDLVNRDPKHLNDDVVKIDFEDVIAEPEGTHSFDGIWKASFTTFTVTKYWFYRLLSALFGIPMALIWGIYFAILSFLHIWAVVPCIKSFLIEIQCISRVYSIYVHTVCDPLFEAVGKIFSNVRINLQKEI
B8: MAPK8IP2 (protein, UniProt Q13387 1-824, looked up)
C-Jun-amino-terminal …: MADRAEMFSLSTFHSLSPPGCRPPQDISLEEFDDEDLSEITDDCGLGLSYDSDHCEKDSLSLGRSEQPHPICSFQDDFQEFEMIDDNEEEDDEDEEEEEEEEEGDGEGQEGGDPGSEAPAPGPLIPSPSVEEPHKHRPTTLRLTTLGAQDSLNNNGGFDLVRPASWQETALCSPAPEALRELPGPLPATDTGPGGAQSPVRPGCDCEGNRPAEPPAPGGTSPSSDPGIEADLRSRSSGGRGGRRSSQELSSPGSDSEDAGGARLGRMISSISETELELSSDGGSSSSGRSSHLTNSIEEASSPASEPEPPREPPRRPAFLPVGPDDTNSEYESGSESEPDLSEDADSPWLLSNLVSRMISEGSSPIRCPGQCLSPAPRPPGEPVSPAGGAAQDSQDPEAAAGPGGVELVDMETLCAPPPPAPAAPRPGPAQPGPCLFLSNPTRDTITPLWAAPGRAARPGRACSAACSEEEDEEDDEEEEDAEDSAGSPGGRGTGPSAPRDASLVYDAVKYTLVVDEHTQLELVSLRRCAGLGHDSEEDSGGEASEEEAGAALLGGGQVSGDTSPDSPDLTFSKKFLNVFVNSTSRSSSTESFGLFSCLVNGEEREQTHRAVFRFIPRHPDELELDVDDPVLVEAEEDDFWFRGFNMRTGERGVFPAFYAHAVPGPAKDLLGSKRSPCWVERFDVQFLGSVEVPCHQGNGILCAAMQKIATARKLTVHLRPPASCDLEISLRGVKLSLSGGGPEFQRCSHFFQMKNISFCGCHPRNSCYFGFITKHPLLSRFACHVFVSQESMRPVAQSVGRAFLEYYQEHLAYACPTEDIYLE

biological target: T1, EGFR-L858R (Homo sapiens, UniProt P00533, L858R); test: MaMTH EGFR-interactor screen, lentiviral preys against EGFR-L858R bait (interaction score); type: cell-based; conditions: MaMTH interaction score of prey with EGFR-L858R bait
T1 construct: with the advantage of testing full-length integral membrane proteins; (GGGGS)2 linker-Cub (human ubiquitin aa 35-76)-GAL4(1-147)-mNFkB(364-550) (C); expressed in transfected cells
Procedure, shortened: (§1)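 5×GAL4UAS-luciferase HEK293T reporter cells were lentivirally infected with preys (MOI ~0.3-0.4) and puromycin-selected ≥48 h. They were then transfected in triplicate with the EGFR bait, and luciferase was read 24 h later. Score is fold-change over averaged negative-control preys; >1 denotes interaction.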

EGFR-L858R mean	Molecule
2.63	B1
3.63	B2
1.89	B3
6.77	B4
3.49	B5
1.36	B6
2.14	B7
1.63	B8

system: EGFR-Wt; test: MaMTH EGFR-interactor screen, lentiviral preys against EGFR-wildtype bait (interaction score); type: cell-based, human; conditions: ratio of EGFR-Wt mean to EGFR-L858R mean interaction score
Procedure, shortened: as §1

Molecule	Wt/L858R
B1	0.84
B2	0.83
B3	0.88
B4	0.93
B5	0.90
B6	0.93
B7	0.87
B8	0.93

biological target: T2, EGFR-Wt (Homo sapiens, UniProt P00533); test: as above; type: cell-based; conditions: MaMTH interaction score of prey with EGFR-Wt bait, mean
T2 construct: with the advantage of testing full-length integral membrane proteins; (GGGGS)2 linker-Cub (human ubiquitin aa 35-76)-GAL4(1-147)-mNFkB(364-550) (C); expressed in transfected cells
Procedure, shortened: as §1

EGFR-Wt mean	Molecule
2.22	B1
3.00	B2
1.67	B3
6.30	B4
3.14	B5
1.27	B6
1.86	B7
1.52	B8
